Experimental data: patent publication US11110154

Key:
Test in all cases: cell_activity
[1] = tested on: ZFP 33074-KOX (ZFP-TF repressor) (synthetic construct); conditions: lentiviral, CAG17/48 neurons; apoptosis ~50% to 20%; AAV in Q175 mice reduced mHtt aggregates (P<0.001); indirect evidence of binding; scale: % increase of intracellular ATP in HD neurons
[2] = tested on: ZFP 30640 (ZFP-TF repressor) (synthetic construct); conditions: AAV, Q175 mouse striatum (~179 CAG), injected at 2 months; indirect evidence of binding
[3] = tested on: ZFP 30645 (ZFP-TF repressor) (synthetic construct); conditions: AAV, Q175 mouse striatum (~179 CAG), injected at 2 months; indirect evidence of binding

Sequence: AGCAGCAGCAGCAGCAGCAGCAGCAGCA (double strand) [Htt CAG repeat, 33074 target]
- activity [1]: 60

Sequence: CAGCAGCAGCAGCAGCAGCAGCAGCAGC (double strand) [Htt CAG repeat, 30640 target]
- activity (% reduction of nuclear Htt aggregates) [2]: > 90

Sequence: CAGCAGCAGCAGCAGCAGCAGCAGCAGC (double strand) [Htt CAG repeat, 30645 target]
- activity (% reduction of nuclear Htt aggregates) [3]: > 90
